Measured values from patent US20240270825A1 (CENTIVAX, published 2024).
Substitutions are numbered along the chain they refer to.

T1: MERS Receptor Binding Domain (RBD) protein (Middle East Respiratory Syndrome (MERS) …, UniProt K9N5Q8 367-606)
T1 construct: also called Middle East Respiratory Syndrome (MERS) virus
T1 sequence: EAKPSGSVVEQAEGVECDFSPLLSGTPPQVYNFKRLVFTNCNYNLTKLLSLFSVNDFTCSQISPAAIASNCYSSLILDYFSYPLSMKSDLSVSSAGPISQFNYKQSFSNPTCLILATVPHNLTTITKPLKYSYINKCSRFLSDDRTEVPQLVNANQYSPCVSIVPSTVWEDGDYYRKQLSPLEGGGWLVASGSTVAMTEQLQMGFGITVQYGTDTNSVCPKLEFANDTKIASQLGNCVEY

B1: COVID19_P09_G02 (scFv, V domains shown)
VH: QVQLVQSGAEVKKPGSSVKVSCKASGGTFSSYAISWVRQAPGQGLEWMGIIYPGDSTTNYSQKFQGRVTITADESTSTAYMELSSLRSEDTAVYYCAGHWGISTPMDVWGQGTLVTVSS
VL: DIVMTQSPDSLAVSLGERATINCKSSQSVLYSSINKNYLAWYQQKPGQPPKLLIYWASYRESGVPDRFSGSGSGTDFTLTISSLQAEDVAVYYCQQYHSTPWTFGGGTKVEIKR
B2: COVID19_P09_H08 (scFv, V domains shown)
VH: B1 VH with I50G, Y52I, G54I, D55F, S56G, S61A, H99E
VL: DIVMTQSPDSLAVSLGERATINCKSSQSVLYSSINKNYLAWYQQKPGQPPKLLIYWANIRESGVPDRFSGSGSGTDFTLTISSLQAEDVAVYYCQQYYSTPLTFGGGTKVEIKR
B3: COVID19_P09_A09 (scFv, V domains shown)
VH: B1 VH with N59R, A97Y, G98S, H99G, W100S
VL: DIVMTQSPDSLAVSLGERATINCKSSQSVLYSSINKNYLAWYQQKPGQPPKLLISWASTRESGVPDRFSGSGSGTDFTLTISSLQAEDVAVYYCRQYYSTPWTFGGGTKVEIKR
B4: COVID19_P09_B07 (scFv, V domains shown)
VH: B1 VH with I50G, Y52I, G54T, D55L, S56G, T58A, S61A, H99S
VL: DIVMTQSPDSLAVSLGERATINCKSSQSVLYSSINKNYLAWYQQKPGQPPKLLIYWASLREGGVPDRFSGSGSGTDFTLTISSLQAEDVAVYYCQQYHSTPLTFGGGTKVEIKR
B5: COVID19_P09_E05 (scFv, V domains shown)
VH: B1 VH with N59R, A97Y, G98S, H99G, W100S
VL: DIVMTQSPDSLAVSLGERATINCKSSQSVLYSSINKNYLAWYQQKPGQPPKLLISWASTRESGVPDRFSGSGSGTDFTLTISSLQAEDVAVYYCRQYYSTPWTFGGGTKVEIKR
B6: COVID19_P10_B06 (scFv, V domains shown)
VH: B1 VH with N59R, A97Y, G98S, H99G, W100S
VL: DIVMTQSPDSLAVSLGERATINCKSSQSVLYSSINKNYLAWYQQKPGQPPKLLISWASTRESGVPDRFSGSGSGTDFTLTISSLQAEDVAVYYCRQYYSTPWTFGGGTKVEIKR
B7: COVID19_P10_A09 (scFv, V domains shown)
VH: QVQLVQSGAEVKKPGSSVKVSCKASGYTFTDYYIHWVRQAPGQGLEWMGWMNPNSGNTGYAQNFQGRVTITADESTSTAYMELSSLRSEDTAVYYCAGGSGISTAWDVWGQGTLVTVSS
VL: DIVMTQSPDSLAVSLGERATIRCTSSLSLQDRSNNKNYLTWYQQKPGQPPKLLIYWASTRESGVPDRFSGSGSGTDFTLTISSLQAEDVAVYYCQQHYSAPLTFGGGTKVEIKR
B8: COVID19_P09_B10 (scFv, V domains shown)
VH: QVQLVQSGAEVKKPGSSVKVSCKASGYSFTDYHIHWVRQAPGQGLEWMAMIVPRGGSTTYAQKFQGRVTITADESTSTAYMELSSLRSEDTAVYYCAGGSGISTPMDVWGQGTLVTVSS
VL: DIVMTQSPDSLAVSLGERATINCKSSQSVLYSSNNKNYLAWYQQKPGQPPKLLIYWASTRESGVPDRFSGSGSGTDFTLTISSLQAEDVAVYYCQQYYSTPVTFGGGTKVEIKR
B9: COVID19_P21_B09 (scFv, V domains shown)
VH: QVQLVQSGAEVKKPGSSVKVSCKASGYTFTGHYMHWVRQAPGQGLEWMGIIYPGDSEARYSQKFQGRVTITADESTSTAYMELSSLRSEDTAVYYCAGGSGISTPMDVWGQGTLVTVSS
VL: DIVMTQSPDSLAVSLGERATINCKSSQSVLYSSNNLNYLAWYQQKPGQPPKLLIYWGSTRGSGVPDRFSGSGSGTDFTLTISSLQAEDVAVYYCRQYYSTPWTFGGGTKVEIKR
B10: COVID19_P21_H01 (scFv, V domains shown)
VH: QVQLVQSGAEVKKPGSSVKVSCKASGYGFSTYWIGWVRQAPGQGLEWMGWINPNSGGTNYAQKFQGRVTITADESTSTAYMELSSLRSEDTAVYYCAGGSGISTPMDVWGQGTLVTVSS
VL: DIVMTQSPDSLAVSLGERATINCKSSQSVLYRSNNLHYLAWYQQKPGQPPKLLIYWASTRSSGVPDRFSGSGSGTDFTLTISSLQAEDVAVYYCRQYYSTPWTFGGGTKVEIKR
B11: COVID19_P22_H10 (scFv, V domains shown)
VH: B10 VH with Y27G, M48V, G57A, N59K
VL: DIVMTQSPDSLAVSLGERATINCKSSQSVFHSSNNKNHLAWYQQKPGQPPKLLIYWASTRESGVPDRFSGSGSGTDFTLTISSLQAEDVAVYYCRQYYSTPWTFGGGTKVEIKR

Assays:
[1] = target: T2, SARS-CoV-1 Receptor Binding Domain (RBD) protein (SARS-CoV-1, UniProt P59594 306-527); assay: SPR Carterra LSA, scFv captured via anti-V5
T2 construct: also called SARS1

[2] = target: T1, MERS Receptor Binding Domain (RBD) …; assay: SPR Carterra LSA, scFv captured via anti-V5

Binder | binding result [1] | binding result [2]
B1 | no binding (tested: 300 nM) | no binding (tested: 300 nM)
B2 | no binding (tested: 300 nM) | no binding (tested: 300 nM)
B3 | no binding (tested: 300 nM) | no binding (tested: 300 nM)
B4 | no binding (tested: 300 nM) | no binding (tested: 300 nM)
B5 | no binding (tested: 300 nM) | no binding (tested: 300 nM)
B6 | no binding (tested: 300 nM) | no binding (tested: 300 nM)
B7 | no binding (tested: 300 nM) | no binding (tested: 300 nM)
B8 | no binding (tested: 300 nM) | no binding (tested: 300 nM)
B9 | no binding (tested: 300 nM) | no binding (tested: 300 nM)
B10 | no binding (tested: 300 nM) | no binding (tested: 300 nM)
B11 | no binding (tested: 300 nM) | no binding (tested: 300 nM)
